The values that follow come from patent US20140165223A1, “TNF SUPERFAMILY TRIMERIZATION INHIBITORS” (B.S.R.C. "Alexander Fleming", priority 2011, published 2014).

Residue numbers refer to the chain shown, from its start. Names may count otherwise.

In assay [1] the target is T1, GST-RANKL (Mus musculus, UniProt O35235).
T1 construct: a cDNA encoding the core ectodomain of murine RANKL residues 158-316, with or without the G278R substitution; made in house; host or cells: Escherichia coli BL21
T1 sequence (O35235 158-316): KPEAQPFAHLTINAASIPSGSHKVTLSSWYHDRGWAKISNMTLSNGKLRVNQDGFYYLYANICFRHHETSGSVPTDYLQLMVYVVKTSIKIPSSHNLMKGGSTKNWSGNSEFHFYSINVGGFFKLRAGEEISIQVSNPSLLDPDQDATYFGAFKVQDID
Kind of assay: Ex vivo RANKL-induced osteoclast formation (BM cells, M-CSF + GST-RANKL, TRAP staining). Type of assay: cell-based. The method, then:
(§1) Instead, WT GST-RANKL (ratio 1:0) induced formation of TRAP+ giant osteoclasts (FIGS. 5A-5C). […] Incubation of WT GST-RANKL with GST at similar concentrations (12.5-100 ng/ml), didn't affect the formation of osteoclasts.
(§2) A novel small molecule inhibitor of TNF trimerization, named SPD304, has been recently reported^[35] to interact with glycine 122 (G122) that corresponds to G278 in RANKL.
(§3) BM cells were collected after flushing out of femurs and tibiae, subjected to gradient purification using FICOLL-PAQUE™ (GE Healthcare), plated in 24-well plates at a density of 5×10^5 cells per well and cultured in αMEM medium (GIBCO) containing 10% fetal bovine serum supplemented with 40 ng/ml RANKL (R&D Systems) and 25 ng/ml M-CSF (R&D Systems) for 5 days. Similarly, splenocytes were collected, plated in 24-well plates at a density of 10^6 cells per well and cultured in the presence of recombinant RANKL and M-CSF for 6 days. GST-RANKL^G278R was pre-incubated with WT GST-RANKL at room temperature for 20 min, prior to the stimulation of the BM cell cultures, in order to enable exchange of the RANKL variants and heterotrimer formation. Small molecule SPD304 (Sigma-Aldrich) was pre-incubated with 80 ng/ml GST-RANKL at various concentrations from 0.25 to 2 μM in αMEM medium for 1 hour at room temperature and then added to culture. Osteoclasts were stained for TRAP activity.

In assay [2] the test system is GST-RANKL. Described as above. The format is cell-based, mouse. To be noted: ratio WT GST-RANKL:GST-RANKL^G278R 0:1. The procedure:
as §1, §2, §3

The next assay addresses T2, RANK-Fc (Mus musculus, UniProt O35305).
T2 construct: purchased R&D systems
Put plainly: Binding assay of GST-RANKL^G278R to RANK. The following applies: immobilized protein, serial dilutions of murine RANK-Fc. The procedure: RANK-Fc interacted with GST-RANKL in a dose-dependent manner, but not with GST-RANKL^G278R or GST.
Nunc plates were coated with recombinant WT GST-RANKL, GST-RANKL^G278R or GST at 3 μg/ml and after blocking with 1% BSA, were incubated with increasing amount of recombinant mouse RANK-Fc (R&D systems). RANK binding was detected with a phycoerythrin (PE) conjugated goat anti-human IgG (Fc) (SouthernBiotech, Birmingham, USA) that was measured (539-573 nm) with the fluorescent plate reader TECAN infinite M200.

The target of assay [3] is T3, RANKL (Mus musculus, UniProt O35235).
T3 construct: expressed in transfected cells; host or cells: HEK 293FT
T3 sequence (O35235 1-316): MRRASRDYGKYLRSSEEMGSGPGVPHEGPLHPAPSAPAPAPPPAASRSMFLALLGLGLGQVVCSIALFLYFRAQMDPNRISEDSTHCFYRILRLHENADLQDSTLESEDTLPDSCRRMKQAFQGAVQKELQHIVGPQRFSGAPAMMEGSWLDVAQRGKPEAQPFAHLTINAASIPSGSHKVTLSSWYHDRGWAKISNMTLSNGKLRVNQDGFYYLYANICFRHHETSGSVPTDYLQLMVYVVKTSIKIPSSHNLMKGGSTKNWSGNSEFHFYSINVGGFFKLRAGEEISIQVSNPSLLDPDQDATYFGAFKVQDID
Put plainly: Trimer formation in transfected HEK 293FT cells (native gel, Western blot). To be noted: co-transfection with WT RANKL-FLAG. Type of assay: cell-based. The procedure: (§4) Similar to the analysis of recombinant RANKL proteins, trimer formation was detected only in WT RANKL-Myc but not in RANKL^G278R-Myc.
(§5) HEK 293FT cells were transfected with 1 μg plasmid DNA using TransIt-293 transfection reagent (Mirus, Madison, Wis.). After 48 hours, transfected cells were harvested in PBS and the half quantity was diluted in equal volume of 2× Laemmli sample buffer, and analyzed in 12% acrylamide denatured gels. The remaining cells were lysed by sonication, centrifuged, and analyzed in 8% native acrylamide gels.
(A western blot detects proteins with antibodies after separation by electrophoresis.)

Assay [4] concerns the target T4, RANKL (Mus musculus, UniProt O35235, G278R).
T4 construct: expressed in transfected cells; host or cells: HEK 293FT
T4 sequence (O35235 1-316 G278R): T3 sequence (O35235 1-316) with G278R
The assay is described as above. The format is cell-based. The following applies: HEK 293FT, RANKL^G278R-Myc. The method, then: as §4, §5

T2 sequence (O35305 with tags, fused parts or gaps limits assumed): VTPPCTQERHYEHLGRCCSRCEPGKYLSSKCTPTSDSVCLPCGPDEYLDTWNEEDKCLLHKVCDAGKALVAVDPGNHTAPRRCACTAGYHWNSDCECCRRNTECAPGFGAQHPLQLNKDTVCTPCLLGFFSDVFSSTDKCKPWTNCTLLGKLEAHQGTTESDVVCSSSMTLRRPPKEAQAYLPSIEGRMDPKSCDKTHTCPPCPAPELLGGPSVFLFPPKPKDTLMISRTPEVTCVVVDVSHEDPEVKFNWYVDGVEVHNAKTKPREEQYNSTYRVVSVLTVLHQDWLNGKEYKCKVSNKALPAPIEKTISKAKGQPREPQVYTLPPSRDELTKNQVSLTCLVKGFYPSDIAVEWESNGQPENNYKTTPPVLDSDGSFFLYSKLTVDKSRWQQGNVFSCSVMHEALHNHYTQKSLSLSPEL

B1: GST-RANKL^G278R: murine RANKL ectodomain residues 158-316 with G278R substitution, fused to GST (protein)
chain: T1 sequence (O35235 158-316) with G121R
With B1, the “formation of TRAP+ giant multinucleated cells” value in the assay with GST-RANKL [1] (ratio WT GST-RANKL:GST-RANKL^G278R 1:1) was “completely impaired the formation of TRAP+ giant multinucleated cells”; in the assay with GST-RANKL [1] (ratio WT GST-RANKL:GST-RANKL^G278R 2:1), “a small number of TRAP+ giant multinucleated cells was formed”. Besides, in the assay with GST-RANKL [1] (ratio WT GST-RANKL:GST-RANKL^G278R 1:2 (50 ng/ml GST-RANKL, 100 ng/ml variant)), the “formation of multinucleated TRAP+ osteoclasts” value is listed as “Complete inhibition in the formation of multinucleated TRAP+ osteoclasts”. Further, the “formation of giant osteoclast-like cells” value in the assay with GST-RANKL [1] (ratio WT GST-RANKL:GST-RANKL^G278R 4:1 or higher) is “Formation of giant osteoclast-like-cells appeared”. Also, the “induction of TRAP+ cells by the variant alone” value with GST-RANKL [2] is on record as “failed to induce formation of TRAP+ cells”. For the same molecule, in the assay with RANK-Fc, the “binding affinity for RANK-Fc” value was “completely abolished”.

B2: RANKL^G278R: murine RANKL with glycine to arginine substitution at residue 278; soluble or full-length Myc-tagged (protein, UniProt O35235 139-316, looked up, variant G278R)
Tumor necrosis factor ligand …: FSGAPAMMEGSWLDVAQRGKPEAQPFAHLTINAASIPSGSHKVTLSSWYHDRGWAKISNMTLSNGKLRVNQDGFYYLYANICFRHHETSGSVPTDYLQLMVYVVKTSIKIPSSHNLMKGGSTKNWSGNSEFHFYSINVGRFFKLRAGEEISIQVSNPSLLDPDQDATYFGAFKVQDID
modifications: Myc tag
notes: murine RANKL with glycine to arginine substitution at residue 278; soluble or full-length Myc-tagged
With B2, in the assay with RANKL [3], the “effect on WT RANKL trimerization” value was “inhibits WT RANKL trimerization”. Also, in the assay with RANKL [4], the “own trimer formation in eukaryotic cells” value is given as “fails to form trimers”.
